Measured values reported in patent publication US20160208018A1 (JUNO THERAPEUTICS, published 2016).
Read-outs that look alike come from different tables or passages of the source.

Columns and labels:
[1] = target: T1, Human ROR1 (receptor tyrosine kinase-like orphan receptor 1) (human, UniProt Q01973 30-937); test: flow cytometry on ROR1-expressing K562 and CHOK1 cells, mean (n = 2)
T1 construct: also called hROR1; K562/ROR1

[2] = target: T2, Mouse ROR1 (mouse, UniProt Q9Z139 30-937); test: inferred from IFN-gamma release of CAR T cells on K562/mouse ROR1 cells
T2 construct: also called mROR1; K562/mouse ROR1
T2 sequence (Q9Z139 30-937): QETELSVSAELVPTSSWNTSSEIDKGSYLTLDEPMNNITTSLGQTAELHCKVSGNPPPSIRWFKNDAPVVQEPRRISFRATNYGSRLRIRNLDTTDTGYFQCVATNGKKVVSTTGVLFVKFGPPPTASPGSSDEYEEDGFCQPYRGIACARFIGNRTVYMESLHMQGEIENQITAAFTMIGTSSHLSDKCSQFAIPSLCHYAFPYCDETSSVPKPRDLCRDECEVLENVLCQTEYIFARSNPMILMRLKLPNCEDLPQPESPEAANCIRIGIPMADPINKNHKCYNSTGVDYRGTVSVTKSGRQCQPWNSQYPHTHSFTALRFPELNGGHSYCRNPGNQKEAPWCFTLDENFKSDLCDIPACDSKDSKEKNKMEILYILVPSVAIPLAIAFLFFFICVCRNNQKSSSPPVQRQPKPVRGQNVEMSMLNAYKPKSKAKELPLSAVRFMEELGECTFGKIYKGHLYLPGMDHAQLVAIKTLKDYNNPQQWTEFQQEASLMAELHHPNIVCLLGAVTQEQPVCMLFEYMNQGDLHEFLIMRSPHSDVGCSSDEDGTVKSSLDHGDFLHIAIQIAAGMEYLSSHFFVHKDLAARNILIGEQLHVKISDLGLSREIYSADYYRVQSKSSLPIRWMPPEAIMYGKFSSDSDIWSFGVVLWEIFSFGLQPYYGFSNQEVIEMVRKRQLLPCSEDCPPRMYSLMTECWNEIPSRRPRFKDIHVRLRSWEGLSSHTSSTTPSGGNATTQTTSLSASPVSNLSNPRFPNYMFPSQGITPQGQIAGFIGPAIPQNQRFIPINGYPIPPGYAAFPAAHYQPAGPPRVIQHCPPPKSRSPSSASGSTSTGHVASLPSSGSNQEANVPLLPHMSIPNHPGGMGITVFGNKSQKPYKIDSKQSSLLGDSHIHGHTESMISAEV
Protocol: Cytokine release was assessed following incubation of the CAR-expressing cells with either K562/human ROR1 (hROR1) or K562/mouse ROR1 (mROR1) antigen-expressing cells. Transduced CD8+ T cells were co-cultured with antigen-expressing cells at a single effector to target (E:T). The co-cultured cells were incubated for about 24 hours, and then supernatants were collected for measurement of IFN-γ using a cytokine immunoassay.

[3] = target: T1, Human ROR1 (receptor tyrosine …); test: flow cytometry competition, competitor 2 nM Myc-R12 scFv on ROR1/K562 cells, mean (n = 2)
Protocol: (§1) Assays also were performed to assess competition of the clones with the reference antibody (R12 scFv), for binding to ROR1-expressing cells. VH clones were titrated against 2 nM Myc-R12 on ROR1/K562 cells and competition assessed with an anti-Myc-Alexa647 secondary antibody, and the half maximal inhibitory concentration (IC₅₀) determined for respective clones.

[4] = target: T1, Human ROR1 (receptor tyrosine …); test: competition with Myc-R12 scFv on ROR1/K562 cells; predicted plateau relative to R12 scFv = 100%
Protocol: as §1
(§2) Additionally, percent (%) maximum (max) binding to ROR1-expressing cells and % max competition with the reference antibody (R12 scFv) were calculated. Percent max binding and competition values were calculated based on predicted plateaus (measured by Prism® using four parameter non-linear regression), relative to values for R12 scFv binding and inhibition, respectively, assigned as 100% in each study.

[5] = target: T1, Human ROR1 (receptor tyrosine …); test: flow cytometry on ROR1-expressing cells; predicted plateau relative to R12 scFv = 100%
Protocol: as §2

[6] = target: T1, Human ROR1 (receptor tyrosine …); test: flow cytometry competition, competitor 2 nM Myc-R12 scFv on ROR1/K562 cells, mean (n = 3)
Protocol: as §1

[7] = target: T1, Human ROR1 (receptor tyrosine …); test: flow cytometry competition, competitor 2 nM Myc-R12 scFv on ROR1/K562 cells, mean (n = 8)
Protocol: as §1

[8] = target: T1, Human ROR1 (receptor tyrosine …); test: flow cytometry on ROR1-expressing K562 and CHOK1 cells, mean (n = 7)
[9] = target: T1, Human ROR1 (receptor tyrosine …); test: competition with R12 scFv on ROR1-expressing cells; predicted plateau relative to R12 scFv = 100%
Protocol: as §2
(§3) Assays also were performed to assess competition (measured as half maximal inhibitory concentration (IC₅₀)) of the clones with the R12 scFv reference antibody for binding to ROR1-expressing cells, as described in Example 1. Percent (%) max ROR1 and % max competition, as compared to the R12 scFv reference antibody, were determined as described in Example 1.

[10] = target: T1, Human ROR1 (receptor tyrosine …); test: flow cytometry competition, competitor R12 scFv on ROR1-expressing cells, mean (n = 3)
Protocol: as §1, §3

[11] = target: T1, Human ROR1 (receptor tyrosine …); test: flow cytometry on ROR1-expressing cells; predicted plateau relative to R12 scFv = 100%; remark: listed apart in the source
Protocol: as §2, §3

[12] = target: T1, Human ROR1 (receptor tyrosine …); test: flow cytometry on ROR1-expressing K562 and CHOK1 cells, mean (n = 4)
[13] = target: T1, Human ROR1 (receptor tyrosine …); test: flow cytometry on ROR1-expressing K562 and CHOK1 cells (n = 1)
[14] = target: T1, Human ROR1 (receptor tyrosine …); test: flow cytometry competition, competitor R12 scFv on ROR1-expressing cells, mean (n = 4)
Protocol: as §1, §3

[15] = target: T1, Human ROR1 (receptor tyrosine …); test: flow cytometry competition, competitor 2 nM Myc-R12 scFv on ROR1/K562 cells, mean (n not given)
Protocol: as §1

[16] = target: T1, Human ROR1 (receptor tyrosine …); test: flow cytometry competition, competitor R12 scFv on ROR1-expressing cells, mean (n = 5)
Protocol: as §1, §3

[17] = target: T1, Human ROR1 (receptor tyrosine …); test: flow cytometry on ROR1-expressing K562 and CHOK1 cells, mean (n = 9)
[18] = target: T1, Human ROR1 (receptor tyrosine …); test: flow cytometry self-competition, competitor R12 scFv on ROR1-expressing cells, mean (n = 17)
Protocol: as §1, §3

[19] = target: T1, Human ROR1 (receptor tyrosine …); test: flow cytometry self-competition, competitor 2 nM Myc-R12 scFv on ROR1/K562 cells, mean (n = 17)
Protocol: as §1

[20] = target: T1, Human ROR1 (receptor tyrosine …); test: flow cytometry on ROR1-expressing K562 and CHOK1 cells, mean (n = 20)
[21] = target: T1, Human ROR1 (receptor tyrosine …); test: as above; remark: listed apart in the source

T1 sequence (Q01973 30-937): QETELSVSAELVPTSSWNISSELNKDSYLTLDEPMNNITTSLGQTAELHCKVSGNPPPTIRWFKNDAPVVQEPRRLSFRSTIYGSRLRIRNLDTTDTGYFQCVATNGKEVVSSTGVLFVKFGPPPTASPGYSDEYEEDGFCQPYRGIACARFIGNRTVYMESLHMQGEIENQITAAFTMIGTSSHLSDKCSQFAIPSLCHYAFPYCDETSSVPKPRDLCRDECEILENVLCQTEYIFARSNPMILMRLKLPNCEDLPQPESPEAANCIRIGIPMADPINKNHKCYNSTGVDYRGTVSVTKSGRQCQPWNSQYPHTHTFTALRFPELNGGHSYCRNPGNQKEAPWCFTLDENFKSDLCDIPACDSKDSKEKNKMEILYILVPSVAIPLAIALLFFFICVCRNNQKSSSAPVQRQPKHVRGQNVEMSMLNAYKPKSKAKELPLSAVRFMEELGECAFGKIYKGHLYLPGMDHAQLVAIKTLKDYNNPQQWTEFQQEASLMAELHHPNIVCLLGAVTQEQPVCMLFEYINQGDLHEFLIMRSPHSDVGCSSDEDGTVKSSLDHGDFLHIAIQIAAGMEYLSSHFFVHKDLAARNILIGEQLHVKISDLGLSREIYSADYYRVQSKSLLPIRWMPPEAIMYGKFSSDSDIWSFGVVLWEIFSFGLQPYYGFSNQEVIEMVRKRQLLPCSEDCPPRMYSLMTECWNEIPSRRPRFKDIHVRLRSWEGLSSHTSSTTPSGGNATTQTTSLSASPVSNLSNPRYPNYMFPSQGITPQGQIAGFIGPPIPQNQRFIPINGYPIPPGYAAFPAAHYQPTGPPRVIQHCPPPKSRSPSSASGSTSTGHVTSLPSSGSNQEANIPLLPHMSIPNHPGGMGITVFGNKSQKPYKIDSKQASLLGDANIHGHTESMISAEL

B1: Clone V102 (VHH)
VHH: QVQLVESGGGLVQPGRSLRLSCTASGFTFGDYAMSWVRQAPGKGLEWVGFIRSKAYGGTTEYAASVKGRFTISRDDSQSIAYLQMDSLKTEDTAVYYCAKVGPSWDYYFDYWGQGTLVTVSS
notes: human VH-only single-domain antibody, no VL
EC50 [1]: 129 nM

B2: CAR containing Clone V353 VH-only antigen-binding domain (other)
chain: QVTLKESGGGLVKPGGSLRLSCAASGFTFSNAWMSWVRQAPGKGLEWVGRIKSKTDGGTTDYAAPVKGRFTISRDDSKNTLYLQMNSLKTEDTAVYYCARDFGRWGYYFDYWSQGTLVTVSS
notes: Chimeric antigen receptor expressed on primary human CD8+ T cells; tEGFR marker is split off by T2A; also called V353 CAR; not shown: Ig-derived hinge only spacer, human CD28-derived transmembrane domain, human 4-1BB-derived intracellular signaling domai
binding result [2]: binds

B3: Clone V353 (VHH)
VHH: QVTLKESGGGLVKPGGSLRLSCAASGFTFSNAWMSWVRQAPGKGLEWVGRIKSKTDGGTTDYAAPVKGRFTISRDDSKNTLYLQMNSLKTEDTAVYYCARDFGRWGYYFDYWSQGTLVTVSS
notes: as for B1
IC50 [3]: 0.4 nM | EC50 [1]: 0.7 nM | % Max Competition [4]: 62% | % Max Binding [5]: 35%

B4: Clone V18 (VHH)
VHH: QVQLVESGGGLVKPGGSLRLSCAASGFTFSNAWMSWVRQAPGKGLEWVGRIKSKTDGGTTDYAAPVKGRFTISRDDSKNSLYLQMNSLKTEDTAVYYCARDFGRWSYYFDYWGQGTLVTVSS
EC50 [1]: 0.2 nM | % Max Competition [4]: 54% | IC50 [6]: 3.4 nM | % Max Binding [5]: 37%

B5: Clone V70 (VHH)
VHH: QVQLLESGGGLVQPGRSLRLSCTASGFTFGDYAMSWVRQAPGKGLEWVSSISGSGRSTDHADYVKGRFTISRDNSKNTVYLQMNRLRAEDTAVYYCAKVSNYEYYFDYWAQGTLVTVSS
notes: as for B1
% Max Competition [4]: 92% | IC50 [7]: 38.2 nM | EC50 [8]: 3.1 nM | % Max Binding [5]: 92%

B6: Clone 48 scFv (scFv)
scFv: QVTLKESGGGLVKPGGSLRLSCAASGFTFSNAWMSWVRQAPGKGLEWVGRIKSKTDGGTTDYAAPVKGRFTISRDDSKNTLYLQMNSLKTEDTAVYYCARDFGRWSYYFDYWSQGTLVTVSSGGGGSGGGGSGGGGSQSVLTQPSSVSGTPGQRVTISCSGSSSNIGSNYVYWYQQLPGTAPKLLIYRNNQRPSGVPDRFSGSKSGTSASLAISGLRSEDEADYYCAAWDDSLSGVVFGGGTKLTVL
% Max Competition [9]: 55% | IC50 [10]: 53.7 nM | % Max Binding [11]: 69% | EC50 [12]: 9.2 nM

B7: Clone V95 (VHH)
VHH: QVQLVESGGGLVKPGGSLRLSCAASGFTFSNAWMSWVRQAPGKGLEWVGRIKSKTDGGTTDYAAPVKGRFTISRDDSKKTLYLQMNSLKTEDTAVYYCARGSGELRFLESYYFDYWGQGTLVTVSS
notes: as for B1
IC50 [3]: 19 nM | EC50 [1]: 35.5 nM | % Max Competition [4]: 36% | % Max Binding [5]: 61%

B8: Clone V86 (VHH)
VHH: QVQLLESGGGLVQPGGSLRLSCAASGFTFSSYAMSWVRQAPGKGLEWVSAISGSGGSTYYADSVKGRFTISRDNSKNTLYLQMNSLRAEDTAVYYCARVIFGVVNIPDYWGQGTLVTVSS
notes: as for B1
EC50 [1]: 97.7 nM

B9: Clone V316 (VHH)
VHH: EVQLVESGGGLVRPGGSLRLSCAASGLTFSRTWMSWVRQAPGKGLEWVASINDDGSEKYYVDSVKGRFTISRDNARNSLYLQMNRLRAEDTAVYYCARVDSERFLEWYYFDYWGQGTLVTVSS
notes: as for B1
IC50 [3]: 28.8 nM | % Max Competition [4]: 37% | EC50 [13]: 28.7 nM | % Max Binding [5]: 78%

B10: Clone 40 scFv (scFv)
scFv: QVTLKESGGGLVKPGGSLRLSCAASGFTFSNAWMSWVRQAPGKGLEWVGRIKSKTDGGTTDYAAPVKGRFTISRDDSKNTLYLQMNSLRTEDTAVYYCARDFGRWSYYFDYWSQGTLVTVSSQPVLTQPHSVSESPGKTVTISCTRSSGNIASNFVQWYQRRPDGATTNVIYEDTQRPSGVSGRFSGSIDRSSNSASLTISGLRAEDEADYYCQSYDGRNLMFGGGTKVTVL
notes: the two differ at the VH N-terminus; Printed without a linker
% Max Competition [9]: 70% | IC50 [14]: 22.8 nM | % Max Binding [11]: 81% | EC50 [12]: 3.2 nM

B11: Clone V224 (VHH)
VHH: QVQLVESGGGLVKPGGSLRLSCAASGFTFINAWMSWVRQAPGKGLEWVGRIKSKTDGGTTDYAAPVKGRFTISRDDSKNTLYLQMNSLKTEDTAVYYCARTYSSSWYESLLFDYWGQGTLVTVSS
notes: as for B1
% Max Competition [4]: 32% | EC50 [13]: 46.2 nM | IC50 [15]: 94.6 nM | % Max Binding [5]: 74%

B12: Clone 20 scFv (scFv)
scFv: QVTLKESGGGLVKPGGSLRLSCAASGFTFSNAWMSWVRQAPGKGLEWVGRIKSKTDGGTTDYAAPVKGRFTISRDDSKNTLYLQMNSLKTEDTAVYYCARDFGRWSYYFDYWSQGTLVTVSSNIQMTQSPSSLSASVGDRVTITCRASQSINKWLAWYQQKPGKAPKLLIHDASTLESGVPSRFSGSGSGTEFTLTISSLHPDDSATYYCQQLKSRPLSFGEGTKLEIK
notes: 262 differs only at the VH N-terminus; Printed without a linker
% Max Competition [9]: 77% | % Max Binding [11]: 97% | IC50 [16]: 4.7 nM | EC50 [17]: 2.6 nM

B13: R12 scFv reference antibody (scFv)
scFv: QEQLVESGGRLVTPGGSLTLSCKASGFDFSAYYMSWVRQAPGKGLEWIATIYPSSGKTYYATWVNGRFTISSDNAQNTVDLQMNSLTAADRATYFCARDSYADDGALFNIWGPGTLVTISSGGGGSGGGGSGGGGSELVLTQSPSVSAALGSPAKITCTLSSAHKTDTIDWYQQLQGEAPRYLMQVQSDGSYTKRPGVPDRFSGSSSGADRYLIIPSVQADDEADYYCGADYIGGYVFGGGTQLTVTG
notes: also called Myc-R12; rabbit anti-ROR1 antibody
IC50 [18]: 3.3 nM | IC50 [19]: 3.3 nM | EC50 [20]: 0.8 nM | EC50 [21]: 0.8 nM
